Results on 7 molecules are retold here after patent publication US20250339531A1, “DUX4 POLYPEPTIDES AND NUCLEIC ACIDS FOR TREATING INFLAMMATORY AND AUTOIMMUNE CONDITIONS” (Fred Hutchinson Cancer Center, priority 2021, published 2025).

To fix the notation:
B1: P68104 (protein, UniProt P68104 1-462, looked up)
chain: MGKEKTHINIVVIGHVDSGKSTTTGHLIYKCGGIDKRTIEKFEKEAAEMGKGSFKYAWVLDKLKAERERGITIDISLWKFETSKYYVTIIDAPGHRDFIKNMITGTSQADCAVLIVAAGVGEFEAGISKNGQTREHALLAYTLGVKQLIVGVNKMDSTEPPYSQKRYEEIVKEVSTYIKKIGYNPDTVAFVPISGWNGDNMLEPSANMPWFKGWKVTRKDGNASGTTLLEALDCILPPTRPTDKPLRLPLQDVYKIGGIGTVPVGRVETGVLKPGMVVTFAPVNVTTEVKSVEMHHEALSEALPGDNVGFNVKNVSVKDVRRGNVAGDSKNDPPMEAAGFTAQVIILNHPGQISAGYAPVLDCHTAHIACKFAELKEKIDRRSGKKLEDGPKFLKSGDAAIVDMVPGKPMCVESFSDYPPLGRFAVRDMRQTVAVGVIKAVDKKAAGAGKVTKSAQKAQKAK
modifications: full-length
B2: Q9P2E9 (protein, UniProt Q9P2E9 1-1410, looked up)
chain: MDIYDTQTLGVVVFGGFMVVSAIGIFLVSTFSMKETSYEEALANQRKEMAKTHHQKVEKKKKEKTVEKKGKTKKKEEKPNGKIPDHDPAPNVTVLLREPVRAPAVAVAPTPVQPPIIVAPVATVPAMPQEKLASSPKDKKKKEKKVAKVEPAVSSVVNSIQVLTSKAAILETAPKEVPMVVVPPVGAKGNTPATGTTQGKKAEGTQNQSKKAEGAPNQGRKAEGTPNQGKKTEGTPNQGKKAEGTPNQGKKAEGTPNQGKKAEGAQNQGKKVDTTPNQGKKVEGAPTQGRKAEGAQNQAKKVEGAQNQGKKAEGAQNQGKKGEGAQNQGKKAEGAQNQGKKAEGAQNQGKKAEGAQNQGKKAEGAQNQGKKAEGAQNQGKKAEGAQNQGKKVEGAQNQGKKAEGAQNQGKKAEGAQNQGKKAEGAQNQGKKAEGAQNQGKKAEGAQNQGKKAEGAQNQGKKAEGAQNQGKKVEGAQNQGKKAEGAQNQGKKAEGAQNQGKKAEGAQNQGQKGEGAQNQGKKTEGAQGKKAERSPNQGKKGEGAPIQGKKADSVANQGTKVEGITNQGKKAEGSPSEGKKAEGSPNQGKKADAAANQGKKTESASVQGRNTDVAQSPEAPKQEAPAKKKSGSKKKGEPGPPDADGPLYLPYKTLVSTVGSMVFNEGEAQRLIEILSEKAGIIQDTWHKATQKGDPVAILKRQLEEKEKLLATEQEDAAVAKSKLRELNKEMAAEKAKAAAGEAKVKKQLVAREQEITAVQARMQASYREHVKEVQQLQGKIRTLQEQLENGPNTQLARLQQENSILRDALNQATSQVESKQNAELAKLRQELSKVSKELVEKSEAVRQDEQQRKALEAKAAAFEKQVLQLQASHRESEEALQKRLDEVSRELCHTQSSHASLRADAEKAQEQQQQMAELHSKLQSSEAEVRSKCEELSGLHGQLQEARAENSQLTERIRSIEALLEAGQARDAQDVQASQAEADQQQTRLKELESQVSGLEKEAIELREAVEQQKVKNNDLREKNWKAMEALATAEQACKEKLLSLTQAKEESEKQLCLIEAQTMEALLALLPELSVLAQQNYTEWLQDLKEKGPTLLKHPPAPAEPSSDLASKLREAEETQSTLQAECDQYRSILAETEGMLRDLQKSVEEEEQVWRAKVGAAEEELQKSRVTVKHLEEIVEKLKGELESSDQVREHTSHLEAELEKHMAAASAECQNYAKEVAGLRQLLLESQSQLDAAKSEAQKQSDELALVRQQLSEMKSHVEDGDIAGAPASSPEAPPAEQDPVQLKTQLEWTEAILEDEQTQRQKLTAEFEEAQTSACRLQEELEKLRTAGPLESSETEEASQLKERLEKEKKLTSDLGRAATRLQELLKTTQEQLAREKDTVKKLQEQLEKAEDGSSSKEGTSV
modifications: full-length
B3: O00469 (protein, UniProt O00469 1-737, looked up)
chain: MGGCTVKPQLLLLALVLHPWNPCLGADSEKPSSIPTDKLLVITVATKESDGFHRFMQSAKYFNYTVKVLGQGEEWRGGDGINSIGGGQKVRLMKEVMEHYADQDDLVVMFTECFDVIFAGGPEEVLKKFQKANHKVVFAADGILWPDKRLADKYPVVHIGKRYLNSGGFIGYAPYVNRIVQQWNLQDNDDDQLFYTKVYIDPLKREAINITLDHKCKIFQTLNGAVDEVVLKFENGKARAKNTFYETLPVAINGNGPTKILLNYFGNYVPNSWTQDNGCTLCEFDTVDLSAVDVHPNVSIGVFIEQPTPFLPRFLDILLTLDYPKEALKLFIHNKEVYHEKDIKVFFDKAKHEIKTIKIVGPEENLSQAEARNMGMDFCRQDEKCDYYFSVDADVVLTNPRTLKILIEQNRKIIAPLVTRHGKLWSNFWGALSPDGYYARSEDYVDIVQGNRVGVWNVPYMANVYLIKGKTLRSEMNERNYFVRDKLDPDMALCRNAREMGVFMYISNRHEFGRLLSTANYNTSHYNNDLWQIFENPVDWKEKYINRDYSKIFTENIVEQPCPDVFWFPIFSEKACDELVEEMEHYGKWSGGKHHDSRISGGYENVPTDDIHMKQVDLENVWLHFIREFIAPVTLKVFAGYYTKGFALLNFVVKYSPERQRSLRPHHDASTFTINIALNNVGEDFQGGGCKFLRYNCSIESPRKGWSFMHPGRLTHLHEGLPVKNGTRYIAVSFIDP
modifications: full-length
B4: Q14240 (protein, UniProt Q14240 1-407, looked up)
chain: MSGGSADYNREHGGPEGMDPDGVIESNWNEIVDNFDDMNLKESLLRGIYAYGFEKPSAIQQRAIIPCIKGYDVIAQAQSGTGKTATFAISILQQLEIEFKETQALVLAPTRELAQQIQKVILALGDYMGATCHACIGGTNVRNEMQKLQAEAPHIVVGTPGRVFDMLNRRYLSPKWIKMFVLDEADEMLSRGFKDQIYEIFQKLNTSIQVVLLSATMPTDVLEVTKKFMRDPIRILVKKEELTLEGIKQFYINVEREEWKLDTLCDLYETLTITQAVIFLNTRRKVDWLTEKMHARDFTVSALHGDMDQKERDVIMREFRSGSSRVLITTDLLARGIDVQQVSLVINYDLPTNRENYIHRIGRGGRFGRKGVAINFVTEEDKRILRDIETFYNTTVEEMPMNVADLI
modifications: full-length
B5: P20020 (protein, UniProt P20020 1-1220, looked up)
chain: MGDMANNSVAYSGVKNSLKEANHDGDFGITLAELRALMELRSTDALRKIQESYGDVYGICTKLKTSPNEGLSGNPADLERREAVFGKNFIPPKKPKTFLQLVWEALQDVTLIILEIAAIVSLGLSFYQPPEGDNALCGEVSVGEEEGEGETGWIEGAAILLSVVCVVLVTAFNDWSKEKQFRGLQSRIEQEQKFTVIRGGQVIQIPVADITVGDIAQVKYGDLLPADGILIQGNDLKIDESSLTGESDHVKKSLDKDPLLLSGTHVMEGSGRMVVTAVGVNSQTGIIFTLLGAGGEEEEKKDEKKKEKKNKKQDGAIENRNKAKAQDGAAMEMQPLKSEEGGDGDEKDKKKANLPKKEKSVLQGKLTKLAVQIGKAGLLMSAITVIILVLYFVIDTFWVQKRPWLAECTPIYIQYFVKFFIIGVTVLVVAVPEGLPLAVTISLAYSVKKMMKDNNLVRHLDACETMGNATAICSDKTGTLTMNRMTVVQAYINEKHYKKVPEPEAIPPNILSYLVTGISVNCAYTSKILPPEKEGGLPRHVGNKTECALLGLLLDLKRDYQDVRNEIPEEALYKVYTFNSVRKSMSTVLKNSDGSYRIFSKGASEIILKKCFKILSANGEAKVFRPRDRDDIVKTVIEPMASEGLRTICLAFRDFPAGEPEPEWDNENDIVTGLTCIAVVGIEDPVRPEVPDAIKKCQRAGITVRMVTGDNINTARAIATKCGILHPGEDFLCLEGKDFNRRIRNEKGEIEQERIDKIWPKLRVLARSSPTDKHTLVKGIIDSTVSDQRQVVAVTGDGTNDGPALKKADVGFAMGIAGTDVAKEASDIILTDDNFTSIVKAVMWGRNVYDSISKFLQFQLTVNVVAVIVAFTGACITQDSPLKAVQMLWVNLIMDTLASLALATEPPTESLLLRKPYGRNKPLISRTMMKNILGHAFYQLVVVFTLLFAGEKFFDIDSGRNAPLHAPPSEHYTIVFNTFVLMQLFNEINARKIHGERNVFEGIFNNAIFCTIVLGTFVVQIIIVQFGGKPFSCSELSIEQWLWSIFLGMGTLLWGQLISTIPTSRLKFLKEAGHGTQKEEIPEEELAEDVEEIDHAERELRRGQILWFRGLNRIQTQIRVVNAFRSSLYEGLEKPESRSSIHNFMTHPEFRIEDSEPHIPLIDDTDAEDDAPTKRNSSPPPSPNKNNNAVDSGIHLTIEMNKSATSSSPGSPLHSLETSL
modifications: full-length
B6: P04899 (protein, UniProt P04899 1-355, looked up)
chain: MGCTVSAEDKAAAERSKMIDKNLREDGEKAAREVKLLLLGAGESGKSTIVKQMKIIHEDGYSEEECRQYRAVVYSNTIQSIMAIVKAMGNLQIDFADPSRADDARQLFALSCTAEEQGVLPDDLSGVIRRLWADHGVQACFGRSREYQLNDSAAYYLNDLERIAQSDYIPTQQDVLRTRVKTTGIVETHFTFKDLHFKMFDVGGQRSERKKWIHCFEGVTAIIFCVALSAYDLVLAEDEEMNRMHESMKLFDSICNNKWFTDTSIILFLNKKDLFEEKITHSPLTICFPEYTGANKYDEAASYIQSKFEDLNKRKDTKEIYTHFTCATDTKNVQFVFDAVTDVIIKNNLKDCGLF
modifications: full-length
B7: Q3SY84 (protein, UniProt Q3SY84 1-523, looked up)
chain: MSRQFTCKSGAAAKGGFSGCSAVLSGGSSSSFRAGSKGLSGGFGSRSLYSLGGVRSLNVASGSGKSGGYGFGRGRASGFAGSMFGSVALGPVCPTVCPPGGIHQVTVNESLLAPLNVELDPEIQKVRAQEREQIKALNNKFASFIDKVRFLEQQNQVLETKWELLQQLDLNNCKNNLEPILEGYISNLRKQLETLSGDRVRLDSELRNVRDVVEDYKKRYEEEINKRTAAENEFVLLKKDVDAAYANKVELQAKVESMDQEIKFFRCLFEAEITQIQSHISDMSVILSMDNNRNLDLDSIIDEVRTQYEEIALKSKAEAEALYQTKFQELQLAAGRHGDDLKNTKNEISELTRLIQRIRSEIENVKKQASNLETAIADAEQRGDNALKDARAKLDELEGALHQAKEELARMLREYQELMSLKLALDMEIATYRKLLESEECRMSGEFPSPVSISIISSTSGGSVYGFRPSMVSGGYVANSSNCISGVCSVRGGEGRSRGSANDYKDTLGKGSSLSAPSKKTSR
modifications: full-length

One assay concerns proteins that co-immunoprecipitated with DUX4-CTD constructs expressed in MB135 myoblasts. The experiment in a line: LC-MS of proteins co-immunoprecipitated with DUX4-CTD (Table 1) and western validation. The class given is binding, human. On the set-up: key to 4. mL1dL2 + Dox + IFNG / 4. + IFNG mix / 4. longCTD + Dox + IFNG / 3. + IFNg + Dox longCTD / 3. + Dox longCTD / 3. + IFNG longCTD: peptide-spectrum matches (PSMs) per protein. Conditions: LC-MS counts of the listed protein co-immunoprecipitated with DUX4-CTD bait longCTD; experiment 4, Dox + IFNG. Summed up:
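FLAG-tagged DUX4-CTD expressed in doxycycline-induced MB135 myoblasts, some also IFNG-treated; nuclear lysates in pH 7.4 NP-40 IP buffer were pre-cleared, then anti-FLAG immunoprecipitated 3 h at 4 °C. For LC-MS, FLAG-peptide elution, in-gel trypsin digest, Orbitrap analysis; proteins with ≥2 PSMs in both experiments categorised and ranked by total PSMs.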
On to B1, for which the “4. longCTD + Dox + IFNG” value was 9.

In the case of B2, the “4. longCTD + Dox + IFNG” value stood at 4.

B3: the “4. longCTD + Dox + IFNG” value worked out at 7.

For the molecule B4, the “4. longCTD + Dox + IFNG” value came out at 6.

Take B5: the “4. longCTD + Dox + IFNG” value was 13.

B6: the “4. longCTD + Dox + IFNG” value is recorded as 11.

The same assay, now with this note: bait longCTD; experiment 3, Dox only.
Take B1: the “3. + Dox longCTD” value came to 9.

With B2, the “3. + Dox longCTD” value is reported as 24.

With B4, the “3. + Dox longCTD” value is 1.

B5: the “3. + Dox longCTD” value stood at 1.

The assay is the same for the next values; noted with them: bait longCTD; experiment 3, IFNg + Dox.
B1: the “3. + IFNg + Dox longCTD” value came out at 21.

Regarding B2, the “3. + IFNg + Dox longCTD” value is 68.

In the case of B3, the “3. + IFNg + Dox longCTD” value came out at 3.

For the molecule B5, the “3. + IFNg + Dox longCTD” value was determined as 1.

On to B6, for which the “3. + IFNg + Dox longCTD” value was found to be 1.

Regarding B7, the “3. + IFNg + Dox longCTD” value is 9.

The assay is the same for the next values; noted with them: sum over all samples.
Take B1: the “SUM of PSMS” value came to 46.

Consider B2, for which the “SUM of PSMS” value amounted to 112.

With B3, the “SUM of PSMS” value was found to be 25.

As to B4, the “SUM of PSMS” value was determined as 7.

Turning to B5, the “SUM of PSMS” value was found to be 36.

With B6, the “SUM of PSMS” value came out at 29.

As to B7, the “SUM of PSMS” value is reported as 30.
